Assay results as given in patent US20180071366A1.
Blank lines part the entries; values can stand above or below the binder they belong to. Numbered stars: 1 amine (or outer) side, 2 acyl side, 3 side chain; on linkers, the order of the positions; unused ones are H or OH. Bridge positions count the residues as written; N and C are the ends. Square brackets hold non-standard residues; d marks the D form. * marks the point of attachment. C20 diacid = O=C(O)CCCCCCCCCCCCCCCCCCC(=O)*; γGlu = O=C(O)[C@H](CCC(=O)[*:2])N[*:1]; Hyp = O=C(O)[C@@H]1C[C@@H](O)CN1; NMeI = CC[C@H](C)[C@H](NC)C(=O)O; Aad = N[C@@H](CCCC(=O)O)C(=O)O; Orn = NCCC[C@H](N)C(=O)O; Dab = NCC[C@H](N)C(=O)O; Dap = NC[C@H](N)C(=O)O; Sar = CNCC(=O)O

Legend:
[1] = biological target: recombinant human amylin 3 receptor (hAMYR3) (human), P30988; test: cell-based or functional assay
Chain of recombinant human amylin 3 receptor (hAMYR3) (human), P30988 (P30988 25-474, chain 1 of 2): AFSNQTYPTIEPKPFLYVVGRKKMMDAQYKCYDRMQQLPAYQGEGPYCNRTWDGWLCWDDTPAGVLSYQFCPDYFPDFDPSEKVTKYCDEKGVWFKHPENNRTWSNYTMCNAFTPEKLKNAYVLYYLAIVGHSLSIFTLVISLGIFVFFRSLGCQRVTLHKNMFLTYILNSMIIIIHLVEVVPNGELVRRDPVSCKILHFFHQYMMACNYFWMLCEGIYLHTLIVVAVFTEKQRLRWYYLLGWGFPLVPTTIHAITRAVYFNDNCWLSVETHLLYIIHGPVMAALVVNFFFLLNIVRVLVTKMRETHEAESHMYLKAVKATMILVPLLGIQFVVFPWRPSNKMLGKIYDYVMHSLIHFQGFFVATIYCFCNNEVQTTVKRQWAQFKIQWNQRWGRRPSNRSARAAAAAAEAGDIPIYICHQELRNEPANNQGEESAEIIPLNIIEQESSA
Chain of recombinant human amylin 3 receptor (hAMYR3) (human), P30988 (O60896 24-148, chain 2 of 2, further chain): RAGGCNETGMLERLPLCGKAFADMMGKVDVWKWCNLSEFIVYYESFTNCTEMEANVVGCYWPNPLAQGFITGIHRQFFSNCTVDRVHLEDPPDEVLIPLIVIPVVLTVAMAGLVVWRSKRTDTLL

[2] = biological target: recombinant human calcitonin receptor (hCT-R) (human), P30988; test: cell-based or functional assay
Chain of recombinant human calcitonin receptor (hCT-R) (human), P30988 (P30988 25-474): as the sequence (P30988 25-474, chain 1 of 2) above

hAMYR3 EC50 [nM] (cAMP formation, 1321N1 cells expressing hAMYR3) [1]: 7.7 nM | hCT-R EC50 [nM] (cAMP formation, 1321N1 cells expressing hCT-R) [2]: 10.8 nM
B1: Compound 47 (peptide)
peptide: {C20 diacid-γGlu}-R[Orn]GTATDATERLAHFLQRSSF[Sar]A[NMeI]LSSTEVGSNT[Hyp]-NH2
modifications: lactam 2-7
SMILES: CC[C@H](C)[C@@H](C(=O)N[C@@H](CC(C)C)C(=O)N[C@@H](CO)C(=O)N[C@@H](CO)C(=O)N[C@H](C(=O)N[C@@H](CCC(=O)O)C(=O)N[C@H](C(=O)NCC(=O)N[C@@H](CO)C(=O)N[C@@H](CC(N)=O)C(=O)N[C@H](C(=O)N1C[C@H](O)C[C@H]1C(N)=O)[C@@H](C)O)C(C)C)[C@@H](C)O)N(C)C(=O)[C@H](C)NC(=O)CN(C)C(=O)[C@H](Cc1ccccc1)NC(=O)[C@H](CO)NC(=O)[C@H](CO)NC(=O)[C@H](CCCNC(=N)N)NC(=O)[C@H](CCC(N)=O)NC(=O)[C@H](CC(C)C)NC(=O)[C@H](Cc1ccccc1)NC(=O)[C@H](Cc1c[nH]cn1)NC(=O)[C@H](C)NC(=O)[C@H](CC(C)C)NC(=O)[C@H](CCCNC(=N)N)NC(=O)[C@H](CCC(=O)O)NC(=O)[C@@H](NC(=O)[C@H](C)NC(=O)[C@@H]1CC(=O)NCCC[C@H](NC(=O)[C@H](CCCNC(=N)N)NC(=O)CC[C@H](NC(=O)CCCCCCCCCCCCCCCCCCC(=O)O)C(=O)O)C(=O)NCC(=O)N[C@@H]([C@@H](C)O)C(=O)N[C@@H](C)C(=O)N[C@@H]([C@@H](C)O)C(=O)N1)[C@@H](C)O

hAMYR3 EC50 [nM] (cAMP formation, 1321N1 cells expressing hAMYR3) [1]: 0.02 nM | hCT-R EC50 [nM] (cAMP formation, 1321N1 cells expressing hCT-R) [2]: 0.107 nM
B2: Compound 48 (peptide)
peptide: {C20 diacid-γGlu}-R[Dap]GTAT[Aad]ATERLAHFLQRSSF[Sar]A[NMeI]LSSTEVGSNT[Hyp]-NH2
modifications: lactam 2-7
SMILES: CC[C@H](C)[C@@H](C(=O)N[C@@H](CC(C)C)C(=O)N[C@@H](CO)C(=O)N[C@@H](CO)C(=O)N[C@H](C(=O)N[C@@H](CCC(=O)O)C(=O)N[C@H](C(=O)NCC(=O)N[C@@H](CO)C(=O)N[C@@H](CC(N)=O)C(=O)N[C@H](C(=O)N1C[C@H](O)C[C@H]1C(N)=O)[C@@H](C)O)C(C)C)[C@@H](C)O)N(C)C(=O)[C@H](C)NC(=O)CN(C)C(=O)[C@H](Cc1ccccc1)NC(=O)[C@H](CO)NC(=O)[C@H](CO)NC(=O)[C@H](CCCNC(=N)N)NC(=O)[C@H](CCC(N)=O)NC(=O)[C@H](CC(C)C)NC(=O)[C@H](Cc1ccccc1)NC(=O)[C@H](Cc1c[nH]cn1)NC(=O)[C@H](C)NC(=O)[C@H](CC(C)C)NC(=O)[C@H](CCCNC(=N)N)NC(=O)[C@H](CCC(=O)O)NC(=O)[C@@H](NC(=O)[C@H](C)NC(=O)[C@@H]1CCCC(=O)NC[C@H](NC(=O)[C@H](CCCNC(=N)N)NC(=O)CC[C@H](NC(=O)CCCCCCCCCCCCCCCCCCC(=O)O)C(=O)O)C(=O)NCC(=O)N[C@@H]([C@@H](C)O)C(=O)N[C@@H](C)C(=O)N[C@@H]([C@@H](C)O)C(=O)N1)[C@@H](C)O

hAMYR3 EC50 [nM] (cAMP formation, 1321N1 cells expressing hAMYR3) [1]: 0.442 nM | hCT-R EC50 [nM] (cAMP formation, 1321N1 cells expressing hCT-R) [2]: 1.04 nM
B3: Compound 49 (peptide)
peptide: {C20 diacid-γGlu}-R[Dab]GTATEATERLAHFLQRSSF[Sar]A[NMeI]LSSTEVGSNT[Hyp]-NH2
modifications: lactam 2-7
SMILES: CC[C@H](C)[C@@H](C(=O)N[C@@H](CC(C)C)C(=O)N[C@@H](CO)C(=O)N[C@@H](CO)C(=O)N[C@H](C(=O)N[C@@H](CCC(=O)O)C(=O)N[C@H](C(=O)NCC(=O)N[C@@H](CO)C(=O)N[C@@H](CC(N)=O)C(=O)N[C@H](C(=O)N1C[C@H](O)C[C@H]1C(N)=O)[C@@H](C)O)C(C)C)[C@@H](C)O)N(C)C(=O)[C@H](C)NC(=O)CN(C)C(=O)[C@H](Cc1ccccc1)NC(=O)[C@H](CO)NC(=O)[C@H](CO)NC(=O)[C@H](CCCNC(=N)N)NC(=O)[C@H](CCC(N)=O)NC(=O)[C@H](CC(C)C)NC(=O)[C@H](Cc1ccccc1)NC(=O)[C@H](Cc1c[nH]cn1)NC(=O)[C@H](C)NC(=O)[C@H](CC(C)C)NC(=O)[C@H](CCCNC(=N)N)NC(=O)[C@H](CCC(=O)O)NC(=O)[C@@H](NC(=O)[C@H](C)NC(=O)[C@@H]1CCC(=O)NCC[C@H](NC(=O)[C@H](CCCNC(=N)N)NC(=O)CC[C@H](NC(=O)CCCCCCCCCCCCCCCCCCC(=O)O)C(=O)O)C(=O)NCC(=O)N[C@@H]([C@@H](C)O)C(=O)N[C@@H](C)C(=O)N[C@@H]([C@@H](C)O)C(=O)N1)[C@@H](C)O
